According to patent US10806798B2, “Compound with effects of thrombolysis, free radical scavenging and thrombus-targeting” (Shanghai Lumosa Therapeutics Co., Ltd., priority 2012, dated 2020):
Bridge positions count the residues as written; N and C are the ends. Peptide text beside a SMILES is read from it. I, II: the chains in the order shown. * marks the point of attachment. X1 = CC1(C)N([O])C(c2ccc(OCC(=O)*)cc2)=[N+]([O-])C1(C)C

Assays:
[1] = FT-MS monitoring of metabolic products in brain tissues of rats treated with Ie; type: in vivo
Procedure: The entire rat brain was taken out and placed into a 50 mL centrifuge tube, into which 10 mL 0.9% NaCl was added, and homogenized to obtain a uniform suspension which was then centrifuged at 3000 rpm for 10 min. 5 mL supernatant was added into 10 mL methanol and evenly mixed by shaking, and centrifuged at 3000 rpm for 10 min. The supernatant was concentrated under reduced pressure until dry, followed by addition of 1 mL methanol, and again centrifuged at 12000 rpm for 10 min. The resultant supernatant was used for monitoring of the content of metabolic products in brain tissues in rats treated with compound Ie.
(MS conditions: loading: 10 μL; ionization mode: ES+; cone voltage: 30 V; mobile phase flow rate: 0.2 mL/min). According to the above data, the metabolic products M1 and M2 were assumed as the following compounds: […]

rats with stroke [2] = experiment: Treatment 6 h after the onset of stroke induced by aged thrombus, Ie 2 μmol/kg (Zealonga scores); type: in vivo, SD rats; conditions: 2 μmol/kg Ie per day for 6 days from 6 h after onset
Procedure: (§1) The efficacy was represented by neural function scores, and a lower score indicates a higher efficacy. A 10% chloral hydrate solution was injected intraperitoneally into male SD rats at a dosage of 400 mg/kg body weight for anesthesia. A longitudinal open incision was made at the center of the neck, and the right common carotid artery trunk was dissected (about 3 cm in length). Carotid external artery branches were each dissected and ligated at the hyoid level, and the carotid internal artery was dissected at the swollen part of the neck. The open incisions in the carotid internal artery and the proximal end of the common carotid artery were occluded respectively with noninvasive arterial clips, and the distal end of the carotid external artery was ligated. A catheter containing 0.5 mL thrombus suspension in normal saline was inserted in the carotid external artery trunk. At the same time when the clip on the carotid internal artery was released, the 0.5 mL thrombus suspension in normal saline in the catheter slowly flew from the carotid external artery to its proximal end, and then was injected into the arteries in brain through the carotid internal artery. […] The rats were compared to themselves each day, and evaluated for the degree of damage in neural function by the Zealonga method. […]

rats with stroke [3] = experiment: Treatment 6 h after the onset of stroke, Ie 5 μmol/kg initially then 2 μmol/kg (Zealonga scores); type: in vivo, SD rats; conditions: Ie 5 μmol/kg on day 1 (6 h after onset), 2 μmol/kg per day for 5 days
Procedure: as §1, with “indicates” for “indicates a”, “incision” for “incisions”

rats with stroke [4] = experiment: Treatment 24 h after the onset of stroke, Ie 5 μmol/kg initially then 2 μmol/kg (Zealonga scores); type: in vivo, SD rats; conditions: Ie 5 μmol/kg on day 1 (24 h after onset), 2 μmol/kg per day for 5 days
Procedure: as §1

In the case of `CC(C)[C@H](NC(=O)[C@H](CC(=O)O)NC(=O)CNC(=O)[C@H](CCCNC(=N)N)NC(=O)[C@H](CCCCNC(=O)[C@H](CCCCN)NC(=O)[C@H](C)NC(=O)[C@@H]1CCCN1C(=O)[C@H](CCCNC(=N)N)NC(=O)CN)NC(=O)COc1ccc(C2=[N+]([O-])C(C)(C)C(C)(C)N2[O])cc1)C(=O)O` [Ie, 1,3-dioxo-2-{4′-oxyacetyl-[N^ω-(Gly-Arg-Pro-Ala-Lys)-Lys-Arg-Gly-Asp-Val]phenyl}-4,4,5,5-tetramethylimidazoline] (I: H-GRPAK / II: X1-KRGDV-OH; amide I:C-II:1), the “crossing of the blood-brain barrier” value ([1]; concluded from metabolic products found in rat brain) is reported as “did indeed cross the blood-brain barrier”, the “metabolic products in brain tissues” value ([1]; rats treated with compound Ie, high-resolution FT-MS) is reported as “two metabolic products M1 and M2 in the brain” and the “rats dead among the 12 rats that received the treatment” value (rats with stroke [2]) is reported as “six were dead”. The “rats dead among the 12 rats that received the treatment” value (rats with stroke [3]) was “two were dead” and the “rats dead among the 12 rats that received the treatment” value (rats with stroke [4]) was “three were dead”.
